The series can be described thus: yeast display, Sf9 membrane polyspecificity reagent, FACS + sequencing; frameworks hold sequencing errors. The method, boiled down:
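Galactose induction of a Saccharomyces cerevisiae BJ5465 synthetic nanobody display library ran 36–48 hours. The cells were then stained for 1 hour at 4 °C with 10% biotinylated, detergent-solubilized Sf9 membrane reagent, pulled down on streptavidin microbeads and FACS-sorted into low and high (top ~1%) gates on expression and reagent-binding fluorescence. Labels for polyreactivity follow the gate of origin.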
As for “QVQLLESGGGLVQAGGSLRLSCAASGSIFYPYALGWYRQAPGKERELVAGISRSGASTYYADSVKGRFTISRDKAKNTVYLQMNSLKPEDTAVYYCAADDWTRNYWGQGTQVTVSS”, the “polyreactivity (PSR sort gate)” value was “low polyreactivity”. For the sequence “QVQLLESGGGLVQAGGSLRLSCAASGSIINRYAMGLYRQAPGKERELVAAISWRGGSTYYADSVKGRFTISRDNAKNTVYLQMNSLKPEDTAVYYCNKVSYVKSGYWGQGTQVTVSS”, the “polyreactivity (PSR sort gate)” value is given as “high polyreactivity”. The entry for “QVQLLESGGGLVQAGGSLRLSCAASGSTFDDYAMGWYRQAPGKEREFVAAIDWSGGSTYYADSVKGRFTISRDNAKNTVYLQMNSLKPEDTAVYYCNADPDGSFDYWGQGTQVTVSS” is “low polyreactivity”.

For “QVQLLESGGGLVQAGGSLRLSCAASGSTFDIYTMGWYRQAPGKERELVAAISRSGTRTYYADSVKGRFTISRDNAKNTVYLQMNSLKPEDTAVYYCNAVQQYYGTWGYGYWGQGTQVTVSS”, the “polyreactivity (PSR sort gate)” value is “high polyreactivity”. As for “QVQLLESGGGLVQAGGSLRLSCAASGSTFLIYAMGWYRQAPGKERELVASINLNTGRTSYADSVKGRFTISRDNAKNTVYLQMNSLKPEDTAVYYCAAELWVRFRGVKEYDYWGQGTQVSVSS”, the entry is “high polyreactivity”. As for “QVQLLESGGGLVQAGGSLRLSCAASGSTFQAYAMGWYRQAPGKERELVAAISVSDGITYYADSVKGRFTISRDNAKNTVYLQMNSLKPEDTAVYYCAAEISLSRSDRIESYDYWGQGTQVTVSS”, the entry is “low polyreactivity”; as for “QVQLLESGGGLVQAGGSLRLSCAASGSTFVGYAMGWYRQAPGKERELVAAISGSGTSTYYADSVKGRFTISRDNAKNTVYLQMNSLKPEDTAVYYCNADPIFVYSSYNYWGQGTQVTVSS”, “low polyreactivity”. The entry for “QVQLLESGGGLVQAGGSLRLSCAASGSTFWPNAMGWYRQAPGKERELVAAITGGGGTNYADSVKGRFTISRDNAKNTVYLQMNSLKPEDTAVYYCAAKKVNSRSHVKYYYWGQGTQVTVSS” is “high polyreactivity”. For “QVQLLESGGGLVQAGGSLRLSCAASGTSAQEDWMGWYRQAPGKEREFVAAIGLGSHTNYADSLKGRFTISRDNAKNTVYLHMNSLKPEDTAVYYCAVSVWQYSDHVYRGQGTQVTVSS”, the “polyreactivity (PSR sort gate)” value is listed as “low polyreactivity”.

Take “QVQLLESGGGLVQAGGSLRLSCAAYGFIFVSNGMGWYRQAPGKEREFVASITSIGGSTYYADSVKGRFTISRDNAKNTVYLQMNSLKPEDTAVYYCAARDIALNAVGRPKEYNRDYWGQGTQVTVSS”: the “polyreactivity (PSR sort gate)” value was “low polyreactivity”. With “QVQLLESGGGLVQAGGSLRLSCASSGRTFRQYVMVWYRQAPGKESELVAAITYSGGSTYFADSVKGRFTISRDNAKYSVYLQMNSLTPEDTAVYYCAARNGYCVGYWGQGTQVTVSS”, the “polyreactivity (PSR sort gate)” value was “high polyreactivity”.

For “QVQLLESGGGLVQAGGSLRLSCASSGSIFHTYAMGWYRPAPGKERELVAAISSGGRTYYADSVKGRFTISRDNAKNTVYLQMNSLKPEDTAVYYCAVRPRPGYYYWGQGTQVTVSS”, the “polyreactivity (PSR sort gate)” value is “high polyreactivity”. The entry for “QVQLLESGGGLVQAGRSLRLSCAASGRTFRIYAMGWYRQAPGKEREEVAAITRSSGSTFYADSVKGRFTISRDNAKNTVYLQMNSLKPEDTAVYYCAAEYFEWWVTYDYWGQGTQVTVSS” is “high polyreactivity”; for “QVQLLESGGGLVQAGVSLRLRCAPSGGTHKYYTMALYRQAPGKERELDATIRWYGDSTSYADSVKGRFTISRDNAKNTVYLQMNSQNPEDTAVYSCNADYAWYQRKSTVEYDYWVQGTQVTVSS” it is “low polyreactivity”.

As to “QVQLLESGGRLVQAGGSLRLSCAASGFTFGVNAMGWYRQAPGKERELVAAITSRGGSTYYADSVKGRFTISRDNAKNTVYLQMNSLKPEDTAVYYCAALGRGYFYGYRYDHWGQGTQVSVSS”, the “polyreactivity (PSR sort gate)” value was “high polyreactivity”. As for “QVQLLESGVGLVQAGGSLRLSSAASGRNFQQNAMAWYRQAPGKERELVAAINSRGGRTYYADSVKGRFTISRDNAKNTVYLQMNSLKPEDTAVYYCGAYFRNYRSYYYWGQGTQVTVSS”, the entry is “high polyreactivity”. As for “QVQLLESRGGLVQAGGSLRLSCAASGSIFYIYAIGWYRQAPGKEREFVAAIRQSDGRTYYADSVKGRFTISRDNAKNTVYLQRTSLNPEDTAVYYCAAQYPVNYIWGYNDWGQGTQVTVSS”, the entry is “high polyreactivity”; as for “QVQLLESVGGLVQAGGSLRISCAASGIIFKSYAMGWYRQAPGKERELVAAISSGGSTYYVDSVKGRFTISRDNAKNTVYLQMNSLKPEDTAVYYCAAYGKYQGYGHWGQGTQVTVSS”, “high polyreactivity”. As for “QVQLLESVGGLVQAGGSLRLSSMASGSILGDRMSWYRHAPGKEHELVATIYDGGITYYADSMKGRFTISRDNAKNTVYLQMNSLRPEDSAVYYCGASFEGYRYHVYCGQGTQVTVSS”, the entry is “low polyreactivity”; as for “QVQLLETCGGLVHAGCTLRLSCAPSRSTFRYNDMGRYRQAPGKERELDASISWSGGDTYYADSVKGRFTISRDNAKNTVYLQMNSLKPEDTAVYYCDKGNIWISRLMDDWGQGTQVTVSS”, “low polyreactivity”; as for “QVQLLETGGGLVQAGGSLRLSCAASGIPFDIYTMGWYIQAPGKERELVAASSYSGGTTYYADSVKGRFTISRDNAKNTVYLQMISLKPEDTAVYYCAAYEGTYFTEVDYWGQGTQVTVSS”, “low polyreactivity”. Regarding “QVQLLETGGGLVQAGGSLRLSCAASGSTFTIYAMGLYRQAPGKEMELVAVITRGSTNYADSVKGRFTISRDNAKNTVYLQMYSLKPEDSAVYYCNARRYGKVVRSRYNYWGQGTQVTVSS”, the “polyreactivity (PSR sort gate)” value was “high polyreactivity”. As to “QVQLQDSGGGLVQAGGSLRLICAASVTIFSYSDLGWYRQAPGKERKFVAGIGFGSNSNFADSVRGRFTISRDNAKNTVYLQMNSLKPEDTAVYYCAAVWFDYSTHRYWGQGTKVTVSS”, the “polyreactivity (PSR sort gate)” value is “high polyreactivity”. As for “QVQLQDSGGVMVLACGSLRLSCAESGYISWSFTMGWYRKAPGKEREFVAGITYGGITYYADSVKGRFTISRDNAKNSVYLQMNRLKPEDTAVYYCAAPQSYPYVYVYWGHGTQVTVSS”, the entry is “high polyreactivity”; as for “QVQLQEGGGLVQAGGSLRLSCPASGYISSRPAMGCYRQAPGKERAFVATIADGTSTYYADSVKCRFTISRDNAKNTVYLQMNSLKPEDTEVYYCAAAYNTEFYLSYWGQGTQVTVSS”, “high polyreactivity”.

With “QVQLQERGGALVQAGGSLRLICAATGNITVTGFMGWYRQSPGKERELVASIAIGGTTYYADSVKGRFSISRDNAKNTVYLQRNSLKQEDTAVSYGAARYLYYAYSYWGQGTQVTVSS”, the “polyreactivity (PSR sort gate)” value was “low polyreactivity”. As for “QVQLQERGGGLVQAGGDLRLSCAASGNIFRDYIMGWYRQAPGKEREFVAGIDRGANTNYADSVKGRFTISRDNAKNTVYLQMNSLKPEDTAVYYCAVHTAIVPDFIYWGQGTQVTVSS”, the “polyreactivity (PSR sort gate)” value is reported as “low polyreactivity”. Regarding “QVQLQERGGGLVQAGGRLRLSCMASGSILGDRMSWYRQAPGKEHELVATIYDGGITYYADSMKVRFTISRDNANNTVDLQMKSQRPEDTAVYFCGASFEGYRYHVFCGQGTQVTVSS”, the “polyreactivity (PSR sort gate)” value is “low polyreactivity”. On to “QVQLQERGGGLVQAGGTLRLSCAASGSFSADEDMGWYRQAQGKEREFVAGISVGGNTNYADSVKGRFTISRENAKNTVYLQINSLKPEDTAVYYCAVLQDVYDALDYWAQGTQVTVSS”, for which the “polyreactivity (PSR sort gate)” value is given as “high polyreactivity”.

On to “QVQLQERGGGLVQARGSLRLSCAASGNISYRTNMGWYRPAPGKERELVASIGGGTTNYADSVKGRFTISRDNAKKTVYLQMNSLKPVDTAVYYCAVVGTTQFRHRYWGQGTQVTASS”, for which the “polyreactivity (PSR sort gate)” value was “high polyreactivity”. The entry for “QVQLQERGGRLVQAGGSLRLSCAASGSIFTQATMGCDRQAPGKERELVAAINFGSSTYYADSVKGRFTISRDNAKSTVYLQMNSLKPEDTAVYYCAVRALWYDFHDYWGQGTQVTVSS” is “high polyreactivity”; for “QVQLQERGSGLVQAGGSLRLTCAESGAIFPAYLMGWYRQPPGKERELVAGISYGSITYCADSVKGRFNIIRDNAKNTVYLQMNSLKPEDTAVKYCAVWRPGGDEYYYWGQGTQVTVSS” it is “low polyreactivity”. As for “QVQLQERSGGLVQAGGSLRLSCAASGYIFNNVNMGWYSQSPGKEREFVAAVGSGSSTNYADSVKGRFTISRDNTKNTGYLHMNSLKPEDTAVYYCNAVRRTGGHGDYWGLGTQVTVSS”, the entry is “high polyreactivity”; as for “QVQLQESAGGLVQAGGSLRLRCSASGYISCDASKGWYRQAPGKERELAASITKGSSTNYADSVKGRFTIRDNAKNSVNLQMNSLKPEDTAVCYCAVTYPYWGDYTYWGQGTQVTVSS”, “low polyreactivity”; as for “QVQLQESCGRLVQAGGILRLSCAACGNIFPSAVMGWYRQALGTEREFVATLNSGSNPYYADSVKGRFTISRDNAKNTVYLQLNSLKLEDTAVYYCAAYYKLPAWHTYWGQGTQVTVSS”, “low polyreactivity”. The entry for “QVQLQESDGGLVQAGGSLRLICAASGSISPQYYMGWYRQAPGKEREFVAISKGTTTYYADSVKGRLTISRVNAKNTVYLQMNSLKPEDTAVYCCAAGRWLQKVHAYWDQGTQVTVSS” is “low polyreactivity”; for “QVQLQESDGGLVQAGGSLRLSCAASGSISPQYYMGWYRQAPGKEREFVAISKGTTTYYADSVKGRLTISRVNAKNTVYLQMNSLKPEDTAVYCCAAGRWLQNVHAYWDQGTQVTVSS” it is “low polyreactivity”; for “QVQLQESFVGLVQAGGSLRLICAASGNIFPTDRMGWYRQAPGKELEFVATISHGGSTNYADSVKGRFTISRDNAKHTVYLQMNSLKPEDTAVYYCAVWSLGRWRNYYWGQGTQVTVIS” it is “low polyreactivity”.

For “QVQLQESGCGLVQAGGSLRLSCAASGYISSWYPMGWYRQAPGKEREFVATIAPGATTYYADSVKGRFTISRDYSINTVYLQMNSLKPEDTAVYYCAAGPENNDFYSYWGQGTQVTVSS”, the “polyreactivity (PSR sort gate)” value was “low polyreactivity”.

“QVQLQESGDGLVQAGGSLRLSCAASGTIFTPHQMGWYRQAPGNEREFVATIDYGSSTNYADSLKGLFTISRDNAKNTMYPQMNSLKPEDTAVYYCANYYWGQGTQVTVSS”: the “polyreactivity (PSR sort gate)” value is “low polyreactivity”.

In the case of “QVQLQESGGGKVHAGGSLRLSCAASGSISYASGMVWYRQAPGKEREFVASIDPGAITNYADSVKGRFTNSHDNAKNTVYLQMNSLKPEDTAVYYCAARVSTTDSHGYWGQGTQVTVSS”, the “polyreactivity (PSR sort gate)” value is on record as “high polyreactivity”.
